In article doi:10.1101/695155 one finds cdk5 recovered by anti-p35 IP with nestin co-expressed, normalised to no nestin data, which are given here for one substance.

The assay concerns the target p35 (UniProt Q15078). Nature of the assay: co-IP.
Chain of UniProt Q15078 (Q15078 whole entry): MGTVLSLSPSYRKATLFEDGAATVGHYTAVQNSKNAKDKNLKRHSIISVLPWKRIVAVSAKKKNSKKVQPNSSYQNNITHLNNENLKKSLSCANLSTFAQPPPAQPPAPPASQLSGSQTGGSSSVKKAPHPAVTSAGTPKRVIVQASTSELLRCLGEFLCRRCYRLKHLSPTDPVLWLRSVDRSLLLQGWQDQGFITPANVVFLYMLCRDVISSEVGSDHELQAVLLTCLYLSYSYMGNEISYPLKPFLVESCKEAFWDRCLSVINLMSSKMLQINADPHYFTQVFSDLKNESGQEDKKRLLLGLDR

For “HA-CDK5-DN (D145N) (from UniProt Q00535 1-292) (enzyme)”, the cdk5 recovered by anti-p35 IP with nestin co-expressed, normalised to no nestin is 1.12.
